Data from patent US20240327522A1 (Genentech, published 2024).

T1: recombinant human αvβ8 protein (PARS-17102) (human)
T1 construct: also called hu.aVb8.17102; not shown: C-terminal acid/basic coils and any purification tags
T1 alpha: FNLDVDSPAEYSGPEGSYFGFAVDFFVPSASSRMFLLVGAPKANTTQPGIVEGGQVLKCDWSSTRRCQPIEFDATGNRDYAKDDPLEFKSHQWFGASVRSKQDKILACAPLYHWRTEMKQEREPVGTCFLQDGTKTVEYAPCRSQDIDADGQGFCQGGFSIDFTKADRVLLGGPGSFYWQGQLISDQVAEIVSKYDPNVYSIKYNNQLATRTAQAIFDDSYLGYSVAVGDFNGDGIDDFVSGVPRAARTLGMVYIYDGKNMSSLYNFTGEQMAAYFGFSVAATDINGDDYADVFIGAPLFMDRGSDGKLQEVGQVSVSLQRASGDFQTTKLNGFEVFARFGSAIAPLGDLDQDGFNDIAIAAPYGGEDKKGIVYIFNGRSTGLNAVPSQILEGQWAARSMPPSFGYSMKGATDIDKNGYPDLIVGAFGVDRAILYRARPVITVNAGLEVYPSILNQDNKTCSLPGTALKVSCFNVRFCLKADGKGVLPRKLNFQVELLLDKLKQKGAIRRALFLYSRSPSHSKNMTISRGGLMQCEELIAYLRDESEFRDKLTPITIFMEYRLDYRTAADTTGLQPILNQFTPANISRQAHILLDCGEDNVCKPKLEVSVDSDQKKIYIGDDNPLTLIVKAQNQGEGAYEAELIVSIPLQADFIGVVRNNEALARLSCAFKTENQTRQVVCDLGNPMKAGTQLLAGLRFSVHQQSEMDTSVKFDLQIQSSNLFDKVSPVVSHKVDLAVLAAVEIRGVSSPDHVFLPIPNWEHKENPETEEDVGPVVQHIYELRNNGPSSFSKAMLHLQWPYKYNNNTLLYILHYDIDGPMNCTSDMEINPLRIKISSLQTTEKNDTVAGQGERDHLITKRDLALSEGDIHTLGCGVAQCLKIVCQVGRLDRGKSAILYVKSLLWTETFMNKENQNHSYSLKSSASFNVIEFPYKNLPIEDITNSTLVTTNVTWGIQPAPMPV
T1 beta: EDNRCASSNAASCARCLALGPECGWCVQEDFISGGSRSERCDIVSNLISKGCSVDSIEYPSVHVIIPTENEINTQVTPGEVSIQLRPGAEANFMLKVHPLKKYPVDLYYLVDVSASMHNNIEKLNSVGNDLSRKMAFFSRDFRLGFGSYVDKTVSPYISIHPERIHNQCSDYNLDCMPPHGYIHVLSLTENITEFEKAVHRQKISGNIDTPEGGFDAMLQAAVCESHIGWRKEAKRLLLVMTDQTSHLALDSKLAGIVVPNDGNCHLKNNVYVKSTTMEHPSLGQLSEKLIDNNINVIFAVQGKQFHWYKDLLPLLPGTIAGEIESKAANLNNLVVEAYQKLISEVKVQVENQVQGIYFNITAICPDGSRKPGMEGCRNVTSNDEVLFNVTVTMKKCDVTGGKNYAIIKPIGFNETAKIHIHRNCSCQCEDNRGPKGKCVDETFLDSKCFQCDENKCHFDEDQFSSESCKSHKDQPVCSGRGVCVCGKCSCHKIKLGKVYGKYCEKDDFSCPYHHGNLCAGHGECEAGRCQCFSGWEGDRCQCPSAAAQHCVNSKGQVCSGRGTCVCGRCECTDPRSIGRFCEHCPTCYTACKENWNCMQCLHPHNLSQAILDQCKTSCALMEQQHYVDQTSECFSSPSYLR

B1: Rb.aVb8-65 (antibody, V domains shown)
VH: QSVEESGGRLVTPGTPLTLTCTVSGIDLSNYAMIWVRQAPGKGLEWIGIISSSDRIWYASWVKGRFTISKTSSTTVDLQMTSLTTEDTATYFCSRSVSNSYFDGWNLWGPGTLVTVSS
VL: DIVMTQTPASVEAAVGGTVTIKCQASENINSLLAWYQQKPGQPPKLLIYRASTLASGVPSRFRGSGSGTQFTLTISDLECDDAATYYCQSNYGFTGSGAFFYGFGGGTEVVVE
notes: Recombinant rabbit monoclonal antibody expressed in Expi293 cells; also called rb.αvβ8-65; rabbit αvβ8-65
B2: Rb.aVb8-92 (antibody, V domains shown)
VH: QSVEESGGRLVTPGTPLTLTCTVSGFSLSSYAMGWVRQAPGKGLEWIGVIRKDDNTYYGNWAKGRFTISRTSTTVDLKMTSLTAADTATYFCARALNTYVGFPYFNIWGPGTLVTVSS
VL: AAVLTQTPSPVSAAVGGTVSISCQSIKSVGDNKWLAWYQQKPGQPPKLLIYDASDLASGVPSRFKGSGSRTQFTLTISDLQCDDAATYYCAGSVSSGDSGFGGGTEVVVA
notes: Recombinant rabbit monoclonal antibody expressed in Expi293 cells; also called rb.αvβ8-92; rabbit αvβ8-92
B3: αvβ8-65 in the murine Fc format (antibody, V domains shown)
VH: EVQLLESGGGLVQPGGSLRLSCAASGIDLSNYAMIWVRQAPGKGLEWVGIISSSDRIWYASWVKGRFTISRDNSKNTLYLQMNSLRAEDTAVYYCSRSVSNSYFDGWNLWGQGTLVTVSS
VL: DIQMTQSPSSVSASVGDRVTITCQASENINSLLAWYQQKPGKAPKLLIYRASTLASGVPSRFSGSGSGTDFTLTISSLQPEDFATYYCQSNYGFTGSGAFFYGFGQGTKVEIK

Assays:
[1] = molecular target: human αvβ8 endogenously expressed on cells (human); experiment: cell-based or functional assay
[2] = molecular target: recombinant human αvβ8 protein (PARS-17102) (human); experiment: SPR, Biacore T200, anti-murine Fc capture (murine Fc format), human αvβ8 analyte 0-50 nM, 37 C, 1:1 model (FIG. 10)
[3] = molecular target: human αvβ8 endogenously expressed on cells (human)
[4] = molecular target: recombinant human αvβ8 protein (PARS-17102) (human); experiment: SPR, Biacore kinetic screen at 37 °C, 1:1 binding fit; antibody as ligand, hu.aVb8-17102 as sample; in the presence of divalent cations according to
[5] = molecular target: T1, recombinant human αvβ8 protein …; experiment: SPR, Biacore T200, antibody captured on protein A chip, aVb8 as analyte, 37 C, 1:1 Langmuir model
Protocol: (§1) The binding affinity of the antibodies was determined by BIAcore™ T200 machine. For kinetics measurements, antibodies were captured on research grade protein A chip (Cytiva, USA) to achieve approximately 60 RU. Ten-fold serial dilutions of human, murine and cyno aVb8 were injected in the same running buffer as above at 37° C. with a flow rate of 100 μL/min. Association rates (ka) and dissociation rates (kd) were calculated using a 1:1 Langmuir binding model (BIAcore™ T200 Evaluation Software version 2.0). The equilibrium dissociation constant (KD) was calculated as the ratio kd/ka. […]

[6] = molecular target: T2, recombinant mouse αvβ8 protein (PARS-17103) (murine, UniProt P43406 31-988; Q0VBD0 43-681, limits assumed); experiment: as above
T2 construct: Made in house; also called mu.aVb8.17103
Protocol: as §1

cyno.aVb8.13650 = molecular target: T3, cyno.aVb8.13650 (cynomolgus, UniProt A0A2K5WCD3 31-992; G7P0S0 43-684); experiment: as above
T3 construct: Carries another lot/construct number than cyno.aVb8-19393; kept apart; also called cynomolgus αvβ8
Protocol: as §1

[7] = molecular target: T1, recombinant human αvβ8 protein …; experiment: SPR, Biacore kinetic screen at 37 °C, 1:1 binding fit; antibody as ligand, hu.aVb8-17102 as sample; in the presence of divalent cations according to
[8] = molecular target: T1, recombinant human αvβ8 protein …; experiment: SPR, Biacore kinetic screen at 37 °C, 1:1 binding fit flagged with a warning sign; antibody as ligand, hu.aVb8-17102 as sample; in the presence of divalent cations according to
[9] = molecular target: recombinant human αvβ8 protein (PARS-17102) (human); experiment: SPR, Biacore T200, anti-murine Fc capture (murine Fc format), human αvβ8 analyte 0-50 nM, 37 C, 1:1 model (FIG. 10); below the instrument's detection limit

T2 sequence (P43406 31-988 limits assumed, chain 1 of 2): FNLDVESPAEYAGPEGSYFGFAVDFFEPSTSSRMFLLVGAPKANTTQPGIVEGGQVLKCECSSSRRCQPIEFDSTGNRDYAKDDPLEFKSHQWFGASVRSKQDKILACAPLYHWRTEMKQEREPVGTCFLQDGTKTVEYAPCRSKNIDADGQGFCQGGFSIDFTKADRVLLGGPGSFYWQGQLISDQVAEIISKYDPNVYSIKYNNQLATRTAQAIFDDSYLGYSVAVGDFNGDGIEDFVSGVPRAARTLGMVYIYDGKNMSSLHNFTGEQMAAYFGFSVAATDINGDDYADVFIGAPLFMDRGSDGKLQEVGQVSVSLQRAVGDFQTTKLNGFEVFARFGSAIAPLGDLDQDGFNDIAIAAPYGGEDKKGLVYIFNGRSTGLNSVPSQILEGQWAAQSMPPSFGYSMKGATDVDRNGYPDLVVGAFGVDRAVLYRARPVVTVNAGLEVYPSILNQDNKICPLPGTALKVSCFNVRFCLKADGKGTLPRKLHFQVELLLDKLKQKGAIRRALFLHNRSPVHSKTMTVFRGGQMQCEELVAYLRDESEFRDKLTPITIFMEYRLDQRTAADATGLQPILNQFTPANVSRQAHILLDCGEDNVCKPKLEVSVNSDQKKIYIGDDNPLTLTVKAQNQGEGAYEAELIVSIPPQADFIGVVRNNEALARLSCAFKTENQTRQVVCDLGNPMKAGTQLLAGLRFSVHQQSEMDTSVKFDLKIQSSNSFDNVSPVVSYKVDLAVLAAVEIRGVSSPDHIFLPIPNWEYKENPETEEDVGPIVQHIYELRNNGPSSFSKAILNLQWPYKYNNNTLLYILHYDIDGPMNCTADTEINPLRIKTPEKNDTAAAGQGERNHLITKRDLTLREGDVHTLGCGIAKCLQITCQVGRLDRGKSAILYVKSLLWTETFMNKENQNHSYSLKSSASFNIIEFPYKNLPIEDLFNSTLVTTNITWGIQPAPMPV
T2 sequence (Q0VBD0 43-681 limits assumed, chain 2 of 2): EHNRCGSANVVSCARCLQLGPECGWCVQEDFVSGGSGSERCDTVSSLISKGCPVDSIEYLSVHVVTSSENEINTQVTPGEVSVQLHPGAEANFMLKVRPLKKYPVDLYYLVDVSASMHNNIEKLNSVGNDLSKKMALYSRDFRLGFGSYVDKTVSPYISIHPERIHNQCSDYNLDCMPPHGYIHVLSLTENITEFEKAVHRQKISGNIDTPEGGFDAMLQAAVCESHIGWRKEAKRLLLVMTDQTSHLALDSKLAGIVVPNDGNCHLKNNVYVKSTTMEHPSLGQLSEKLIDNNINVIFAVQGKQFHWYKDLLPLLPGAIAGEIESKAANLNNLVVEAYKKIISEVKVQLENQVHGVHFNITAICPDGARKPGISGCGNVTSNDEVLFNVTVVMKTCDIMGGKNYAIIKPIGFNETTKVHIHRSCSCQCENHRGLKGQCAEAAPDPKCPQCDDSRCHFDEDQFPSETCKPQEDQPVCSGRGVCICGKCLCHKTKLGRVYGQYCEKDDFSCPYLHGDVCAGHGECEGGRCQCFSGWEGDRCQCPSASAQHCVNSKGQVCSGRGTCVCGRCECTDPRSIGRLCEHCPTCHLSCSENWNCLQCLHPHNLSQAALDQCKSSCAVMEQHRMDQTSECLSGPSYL

| Molecule | IC50 (nM), experiment #1: LN-229 + 3T3-Nano-human GARP/LTGFβ1 (WT) co-culture, NanoLuc reporter [1] | IC50 (nM), experiment #2: LN-229 + 3T3-Nano-human GARP/LTGFβ1 (WT) co-culture, NanoLuc reporter [1] | IC50 (nM), experiment #3: LN-229 + 3T3-Nano-human GARP/LTGFβ1 (non-releasable, NR) co-culture, NanoLuc reporter [1] | IC50 (nM), experiment #4: LN-229 + 3T3-Nano-human GARP/LTGFβ3 (WT) co-culture, NanoLuc reporter [1] | Kd [2] | koff [2] | kon [2] | Kd [5] | koff [5] | kon [5] | Kd [6] | koff [6] | kon [6] | Kd (cyno.aVb8.13650) | koff (cyno.aVb8.13650) | kon (cyno.aVb8.13650) | further results |
| --- | --- | --- | --- | --- | --- | --- | --- | --- | --- | --- | --- | --- | --- | --- | --- | --- | --- |
| ADWA11 mIgG2a.LALAPG (antibody) | 0.95 nM | 1.51 nM | 0.34 nM | 0.79 nM | 0.451 nM | 5.33e-05 s⁻¹ | 118000 M⁻¹ s⁻¹ | – | – | – | – | – | – | – | – | – | – |
| C6D4 mIgG2a.LALAPG (antibody) | 0.63 nM | 1.45 nM | 0.24 nM | 0.78 nM | 1.06 nM | 9.3e-05 s⁻¹ | 87800 M⁻¹ s⁻¹ | – | – | – | – | – | – | – | – | – | IC50 of the TGFb1 reporter signal, co-culture of LN-229 cells with 3T3-Nano GARP/LTGFb1 reporter cells [3]: 2.11 nM; Kd [4]: 3.8 nM; koff [4]: 0.000266 s⁻¹; kon [4]: 69900 M⁻¹ s⁻¹ |
| Isotype control (antibody) | > 333 nM | > 333 nM | > 333 nM | > 333 nM | – | – | – | – | – | – | – | – | – | – | – | – | – |
| B1 | – | – | – | – | – | – | – | 0.7 nM | 0.000131 s⁻¹ | 187000 M⁻¹ s⁻¹ | 0.9 nM | 0.000132 s⁻¹ | 146000 M⁻¹ s⁻¹ | 1.94 nM | 0.000121 s⁻¹ | 62400 M⁻¹ s⁻¹ | Kd [7]: 1.54 nM; koff [7]: 0.000349 s⁻¹; kon [7]: 227000 M⁻¹ s⁻¹ |
| B2 | – | – | – | – | – | – | – | 1.6 nM | 0.000164 s⁻¹ | 102000 M⁻¹ s⁻¹ | 1.86 nM | 0.000184 s⁻¹ | 98600 M⁻¹ s⁻¹ | 6.91 nM | 0.000293 s⁻¹ | 42400 M⁻¹ s⁻¹ | Kd [8]: 671 nM; koff [8]: 0.000777 s⁻¹; kon [8]: 1160 M⁻¹ s⁻¹ |
| B3 | – | – | – | – | < 0.0258 nM | – | 258000 M⁻¹ s⁻¹ | – | – | – | – | – | – | – | – | – | koff [9]: < 1e-05 s⁻¹ |
